Patent US20220177587A1, “METHODS AND USES OF VARIANT CD80 FUSION PROTEINS AND RELATED CONSTRUCTS” (Alpine Immune Sciences, Inc., priority 2018, published 2022)

Columns and labels:
human PD-L1 (human) [1] = molecular target: human PD-L1 (human) (UniProt Q9NZQ7); experiment: flow cytometry, CHO/PD-L1 cells; MFI over CD80 WT IgV-Fc
human PD-L1 (human) [2] = molecular target: human PD-L1 (human) (UniProt Q9NZQ7); experiment: flow cytometry, CHO cells stably expressing PD-L1
CD28 (human) [3] = molecular target: CD28 (human) (UniProt P10747); experiment: flow cytometry, Jurkat cells (CD28); MFI over CD80 WT IgV-Fc
human CTLA-4 (human) [4] = molecular target: human CTLA-4 (human) (UniProt P16410); experiment: flow cytometry, CHO cells stably expressing CTLA4
Chain of human CTLA-4 (human) (P16410 36-223): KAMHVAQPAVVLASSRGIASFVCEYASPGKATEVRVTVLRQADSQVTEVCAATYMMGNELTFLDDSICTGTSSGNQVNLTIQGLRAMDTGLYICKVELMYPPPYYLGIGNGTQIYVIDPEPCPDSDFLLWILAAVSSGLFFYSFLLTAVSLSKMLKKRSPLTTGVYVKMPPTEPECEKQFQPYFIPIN

human CTLA-4 (human) [5] = molecular target: human CTLA-4 (human) (UniProt P16410); experiment: flow cytometry, CHO/CTLA4 cells; MFI over CD80 WT IgV-Fc
CD28 (human) [6] = molecular target: CD28 (human) (UniProt P10747); experiment: flow cytometry, Jurkat cells (CD28)

Chain of human PD-L1 (human) (Q9NZQ7 19-290): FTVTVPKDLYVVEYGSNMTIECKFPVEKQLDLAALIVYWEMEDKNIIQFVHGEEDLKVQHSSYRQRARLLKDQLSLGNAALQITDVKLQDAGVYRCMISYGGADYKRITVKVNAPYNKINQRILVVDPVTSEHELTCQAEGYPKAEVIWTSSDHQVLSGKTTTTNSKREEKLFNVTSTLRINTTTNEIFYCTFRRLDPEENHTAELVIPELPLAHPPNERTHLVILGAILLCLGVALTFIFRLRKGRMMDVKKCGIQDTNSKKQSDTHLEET

Binder | Fold change to WT CD80 (human PD-L1 (human) [1]) | MFI at 33.3 nM (human PD-L1 (human) [2]) | Fold change to WT CD80 (CD28 (human) [3]) | MFI at 33.3 nM (human CTLA-4 (human) [4]) | Fold change to WT CD80 (human CTLA-4 (human) [5]) | MFI at 33.3 nM (CD28 (human) [6])
variant CD80 IgV-Fc (inert) H18V/E35D/M47V/V68M/A71G/D90G (Fc fusion) VIHVTKEVKEVATLSCGVNVSVEELAQTRIYWQKDKKMVLTMMSGDVNIWPEYKNRTIFDITNNLSIMILGLRPSDEGTYECVVLKYEKGAFKREHLAEVTLSVKAD | 264 fold | 43600 MFI | 20.7 fold | 16800 MFI | 12.1 fold | 2120 MFI
variant CD80 IgV-Fc (inert) H18F/A26P/E35D/M47I/V68M/A71G/D90G (Fc fusion) VIHVTKEVKEVATLSCGFNVSVEELPQTRIYWQKDKKMVLTMMSGDINIWPEYKNRTIFDITNNLSIMILGLRPSDEGTYECVVLKYEKGAFKREHLAEVTLSVKAD | 196 fold | 32300 MFI | 47.1 fold | 23900 MFI | 17.3 fold | 4800 MFI
variant CD80 IgV-Fc (inert) H18F/A26D/E35D/D46E/M47T/V68M/A71G/D90G (Fc fusion) VIHVTKEVKEVATLSCGFNVSVEELDQTRIYWQKDKKMVLTMMSGETNIWPEYKNRTIFDITNNLSIMILGLRPSDEGTYECVVLKYEKGAFKREHLAEVTLSVKAD | 167 fold | 27500 MFI | 59.1 fold | 17200 MFI | 12.4 fold | 6030 MFI
variant CD80 IgV-Fc (inert) H18V/A26Q/E35D/M47V/V68L/A71G/D90G (Fc fusion) VIHVTKEVKEVATLSCGVNVSVEELQQTRIYWQKDKKMVLTMMSGDVNIWPEYKNRTIFDITNNLSILILGLRPSDEGTYECVVLKYEKGAFKREHLAEVTLSVKAD | 204 fold | 33600 MFI | 30.6 fold | 17700 MFI | 12.8 fold | 3130 MFI
variant CD80 IgV-Fc (inert) H18F/A26N/E35D/M47V/V68M/A71G/D90K (Fc fusion) VIHVTKEVKEVATLSCGFNVSVEELNQTRIYWQKDKKMVLTMMSGDVNIWPEYKNRTIFDITNNLSIMILGLRPSDEGTYECVVLKYEKKAFKREHLAEVTLSVKAD | 136 fold | 22400 MFI | 31.1 fold | 15200 MFI | 11 fold | 3170 MFI
variant CD80 IgV-Fc (inert) H18V/A26D/E35D/M47V/V68M/A71G/D90G (Fc fusion) VIHVTKEVKEVATLSCGVNVSVEELDQTRIYWQKDKKMVLTMMSGDVNIWPEYKNRTIFDITNNLSIMILGLRPSDEGTYECVVLKYEKGAFKREHLAEVTLSVKAD | 409 fold | 67500 MFI | 61.3 fold | 22100 MFI | 16 fold | 6250 MFI

Further lines, results first:

Fold change to WT CD80 (human PD-L1 (human) [1]) | MFI at 33.3 nM (human PD-L1 (human) [2]) | Fold change to WT CD80 (CD28 (human) [3]) | MFI at 33.3 nM (human CTLA-4 (human) [4]) | Fold change to WT CD80 (human CTLA-4 (human) [5]) | MFI at 33.3 nM (CD28 (human) [6]) | Binder
165 fold | 27300 MFI | 17.8 fold | 8280 MFI | 6 fold | 1820 MFI | variant CD80 IgV-Fc (inert) H18Y/A26P/E35D/M47Y/V68I/A71G/D90G (Fc fusion) VIHVTKEVKEVATLSCGYNVSVEELPQTRIYWQKDKKMVLTMMSGDYNIWPEYKNRTIFDITNNLSIIILGLRPSDEGTYECVVLKYEKGAFKREHLAEVTLSVKAD
290 fold | 47900 MFI | 25 fold | 16500 MFI | 11.9 fold | 2550 MFI | variant CD80 IgV-Fc (inert) H18Y/E35D/M47V/V68L/A71G/D90G (Fc fusion) VIHVTKEVKEVATLSCGYNVSVEELAQTRIYWQKDKKMVLTMMSGDVNIWPEYKNRTIFDITNNLSILILGLRPSDEGTYECVVLKYEKGAFKREHLAEVTLSVKAD
330 fold | 54500 MFI | 50.2 fold | 12200 MFI | 8.8 fold | 5120 MFI | variant CD80 IgV-Fc (inert) H18Y/A26P/E35D/M47I/V68M/A71G (Fc fusion) VIHVTKEVKEVATLSCGYNVSVEELPQTRIYWQKDKKMVLTMMSGDINIWPEYKNRTIFDITNNLSIMILGLRPSDEGTYECVVLKYEKDAFKREHLAEVTLSVKAD
